This note sets out measurements from patent US10471162B2, “Collagen targeted imaging probes” (priority 2014, dated 2019).

In the data set the test system is pulmonary fibrosis, C57/BL6 mice (bleomycin or sham). Conditions: mouse, in vivo. On the procedure: Pulmonary fibrosis was induced in 7-8-week-old male C57/BL6 mice by transtracheal administration of bleomycin (BM; 2.5 U/kg) in 50 μL of PBS under direct vision using a small cervical incision. Sham animals received only PBS. Animals were placed in a small-animal PET/SPECT/CT scanner (Triumph; TriFoil Imaging), equipped with inhalation anesthesia and heating pad. Each animal was anesthetized with isoflurane (4% for induction, 1-1.5% for maintenance in medical air). After placement of an in-dwelling catheter in the femoral vein for probe administration, mice were positioned in the PET-CT and the probe was given as a bolus as the PET acquisition began. Mice were imaged continuously by PET for 120 minutes. […] Instrument calibration was performed with phantoms containing small known amounts of radioactivity. […] Reconstructed PET/CT data were quantitatively evaluated using AMIDE software package (Loening and Gambhir, 2003). […] The radioactivity concentration within organs was obtained from mean pixel values within the VOI volume and converted to counts per milliliter per minute and then divided by the injected dose (ID) to obtain an imaging VOI-derived percentage of the injected radioactive dose per cubic centimeter of tissue (% ID/cc). […] Instrument calibration was performed with phantoms containing small known amount of radioactivity. […]

As to `CC(C)C[C@H](NC(=O)[C@@H]1CSSC[C@H](NC(=O)[C@H](Cc2c[nH]cn2)NC(=O)[C@H](Cc2c[nH]c3ccccc23)NC(=O)[C@H](CCCCNC(=O)CNC(=O)CCC(C(=O)O)N2CCN(CC(=O)O)CCN(CC(=O)O)CC2)NC(=O)CNC(=O)CCC(C(=O)O)N2CCN(CC(=O)O)CCN(CC(=O)O)CC2)C(=O)N[C@@H]([C@@H](C)O)C(=O)N[C@@H]([C@@H](C)O)C(=O)N[C@@H](CCCCNC(=O)CCC(C(=O)O)N2CCN(CC(=O)O)CCN(CC(=O)O)CC2)C(=O)N[C@@H](Cc2ccccc2)C(=O)N2CCC[C@H]2C(=O)N[C@@H](Cc2c[nH]cn2)C(=O)N[C@@H](Cc2c[nH]cn2)C(=O)N[C@@H](Cc2ccc(O)cc2)C(=O)N1)C(=O)N[C@@H](Cc1ccc(O)cc1)C(=O)N[C@@H](Cc1ccc(-c2ccccc2)cc1)C(N)=O` (single isomer, unassigned) [CBP8], the “Mean PET activity in heart and muscle, BM-treated vs sham, in words” value is “not significantly different”.
